Source: patent publication US20200370050

Target: FLAG-CRAF (1-648)

B1: human placental GSTP1 (Sigma-Aldrich) (protein)
chain: PPYTVVYFPVRGRCAALRMLLADQGQSWKEEVVTVETWQEGSLKASCLYGQLPKFQDGDLTLYQSNTILRHLGRTLGLYGKDQQEAALVDMVNDGVEDLRCKYISLIYTNYEAGKDDYVKALPGQLKPFETLLSQNQGGKTFIVGDQISFADYNLLDLLLIHEVLAPGCLDAFPLLSAYVGRLSARPKLKAFLASPEYVNLPINGNGKQ
phosphorylation of MEK1 by FLAG-CRAF (in vitro kinase assay, Western blot for p-MEK1/2): GSTP1 was found to enhance the phosphorylation of MEK1 by FLAG-CRAF (compare lanes 3 and 5 in FIG. 3)
